Test results taken from the DeepSol protein solubility set.

assay: soluble on expression in E. coli; label from the status in PepcDB or PDB records

| Sequence | soluble on expression in E. coli |
| --- | --- |
| MAHHHHHHMAAVFSTDASPSADVAVTAQFRVARGEYPTLAVLKQVPLLDDEALRLAMEKLAARRAGHTAGGGADGEPEGVDYTRYTTVDGEGTQACPCKDTGVWPAWVFSPGIQLMARRLRVRELSLEFLSLIDSMMAVNPADRPTAEAVLLDSPVFGMRMPWWEKVVEKAVRRVVEGKENVLLDVCVGDSDEEEEEDEEEAALVRRTMMPLVLPAENHGYVPHNVIHWWNVDLTRGEPDHTKWLSPTSLLASLLTTVRDLTGLEAARDAQDPVLREVPLYTATSLQFVERVCVPVRGTDVSARKIEDGPLFRELEAGGHSTGFFIHVQIRIRAIARAGQVLMANGWAEEEDVADQEEMARRAMEELVATTEKWLLSREATTGVAALHVLPWVSWHLNEEEAGTDGSTQHCFIVEYAAAGPGDGQPQPCANESSVTGEVSSVFRDWRANLTDGLQRLCCDDATAPDETTHDGASNAPRGGLRLEEKLEAMLDALEAVESELMERQKRNEAHQGLLQDHVVHWLSVRAAPSVERCMETLQGVCGGGDVSSQQIHEWILTTVFTSEGAMALMPVLRI | not soluble |
| MAHHHHHHMADDILQCVHKEFKYVLISSDINDQIKELTFSGSERKFQGVLASYFRRIIFDEKGKNELKEVIKEKLKVSKENDNGGTERAGAEQEGDQNGQKSGQPNGAELNASAITPDLINNAVESSQTYQIIPLTIPTEKTNFFAVNCYIDDIGRIKKLPYNSRASRICSTEIYGDAFLSKTYDNEDFRRCDFTISEYEQFLQNPPKAENRYPPSDTMCVSG | soluble |
| MAHHHHHHMADNITNDKRDIFKIHKWSAVAAWSWDISVDNCAICRNHIMDLCIECQAKTTDHENDKDKKIDKEGCTVAWGVCNHAFHLHCISRWIKARQVCPLDNTTWEFQKATD | soluble |
| MAHHHHHHMADRADHYINQLNDAYALKVGGIYNHSTLASSNHNKAHTFGSMPHALIQMFEGDVVKAVEAYHKTFPEDDLYALVDFHNDVISDSLACLKAFKNKLKAVRIDTSKALIDKMFSEGEAEYGVTQNQVKRLREALDANGGKHVKITVSSGFNAKRIKEFEDENTPVDTYGVGASLLKI | soluble |
| MAHHHHHHMAEALHERHFFDKFIKMNIPDDYLDASRFRVIPDNQEVYVHKFQDKCLIIEILCFQNMNIQEKGNFYFYDLAKENDSIENVIITSNHSVPHSQGNYILLVGRQKIKKNNSSTHEPILLYICIFPLEEHNADIIITWNVPKEDMDIQPELETFNEMMQSFRILDYTLFV | soluble |
| MAHHHHHHMAEHLLEQLRDVMVLQPSDGAVGNGEMDTSAANSHKYSVVSTFTNSPFVAVLEDTENNEDDEKELIRLLDELSHRIHCSDAADDVERPSGSFAVEKVEAPTLRASHMAPPIYGSPAPAGGSPFNYASCVSQTTKPPPSFAEAVATTPPLSEVPVELSPLAAHYVPPMPAVQQDPILLRNTHGVFMLRPITKPTPPYTPPSLTSSISQPPRYALPPAALPQSQPHFLGSSLAQVGGLADAQIPKKSSFSPYEIPHSMNNVIGGSQILGTGGAGNYTYISTSVKSKSTSHMQPPPPYPS | not soluble |
| MAHHHHHHMAHVLQKCAHVLGISLSATGVYYAKGKMPYPATSSNEGTSSAESMGGSPGKAAKSNTVSAVKESQAATRKSKAQGNSVATAAVHTPSPPSSTEMNATNLDATSPCSSAAGPVGFFFDVGLHDLPNPPRDFDVTPSALAVDGTHSSANGAVIAVRDFVSHIPPFFVPVTEVVANMPGYTAEHLEVYLNVNSLELVTVAGERYVRLYGSFGDLSLSGSEVSEKRYAHYRPDVALVAAFEAAFEGIYDKWMPLPELLRRVGPDVTAQLPYQGPAAITYFAQMQHRFAFAVREVPTTGGGAAGALSSPQFTTEAAVLLRKPGYSGLEAHSTPTPKSFQALMSLVPGDTQVDIDVVRCQLTSEVRAELSRYYDGLEGFFAAHKPVFFVPPETPTVVMRMRYRLRTQRAKLPLEEQLRIATDARDKARIRSLRRKIAFRDDPSHPLHDPENLAKEVSKHLPRRGFVHLRIFLKRNVPEELLMYMPKRMRCFFNNYPQYFTQFEYQSAGTWCLCRPDQPLPRGVIRQNFSDGDLLRLIAEFLQQRGARAASMVHTNLPFGAQEVIRRRYGGVYFFVTRYPQYFNVVLKTDRQNVKSSAVVHLIQVPSQELSDATMAASAASLNNPNAPSHDDDDHESGDDDDDEDLDDGLD | not soluble |
| MAHHHHHHMALRRLVKMSTTAEECAAVSELFRQYRHPNLVPLTNVLVTDEFVMGSADVIMEYKFITGAKSLNEAFINEGKATEGLLWSFACQMVSLMRAFHETSTPLRGLHWTKILFVPVSSRFYFSGVGFMDVMEPKGSAHQSAALMKHDIQSLGLLLLQLSTGNSNAKPEDFTAQPAKGYSGIFWLLVKACIDGTADVVTLCRALGERMSMEVAHQEGHADRLISQCGKEAHNGRIMRLMIKLNFVLESLHDFPEHSAEANNRYALRLFSQYVFNQVDERHRTRLDWGHVFHSLNKLDCGSEELVQLIGNDESNTILVISYRDLRDTLERAFEQLQPPPNEGDVQPFTVTVGTTSATL | not soluble |
| MAHHHHHHMALVQSHYGSDAIHTRLNDDPPSSEEIERRRGAGCLPYSNRLVHRLVVLPVTPPSIYEGETTQSPVETQGTHNERRANERDRQRRARYASLLRSHYVPLVPFSTFTEPQERSFKLPTISKYPAARRQPQFAQSEEDYMMCGGFYPGPDQYDHRGGPRLGVMQQHTVQLERVHSRHVAPPPSRLINAPGNEDMLFPI | not soluble |
| MAHHHHHHMAMKDAVWLGKPVDVTGEDLCSVYTSRIGGTATLFRETADYSVFRCPKCNSMNTVSLLAQIYAPLDVYDRLLYVLTCSTCSTEQSTFCFALRSQNFNPSYKNVSQTNDKGGCEDKRLLFEESADWGDGMDKGWDYDYKSVKSNTATEQRGNRSTVNEAIADDICSTEVPSSLAPPGSQPPIRGMRFPCFTLEVFEEPPKVKPKSAPFNIQLHEAQGKYGEDVVETTVLDEADEPLHEKLLRKYVERIGRVPSQCVRWGPSREPLQLSVISIVAPRCPYCGKKRRYELQLTSPIIYFLTKSNEKKHPLHFGNVLVFTCSGNCNTEAYALEYCFVEGEI | not soluble |
| MAHHHHHHMANRTDASAIKNFGSNPQYLISNIIRSKIYDSPYWKEKCFALTSESIIDQAINLKYVGGTYGGNRKPTRFLCLILKLLQIQPDKDIIYEYIKNEDFVYLRALGIFYLRLIGKSLEVYNHLEPILFDYRKIRMRLQNGTFEKIYMDVFVDNCLILNNFLDVDFPTLTKRQVLEENNLLQRKNLEYYKALLNISSDNELFKNNEDTTHNKNKEINKNKNEYKQRDMLERHKKINKYSSEDDHNYYHKKEGNYDKNKKHNKIYNHKYNNKYDDEERRHHSDYSSDMDRKSRKKEKKRTHSKYDHKKKKEKRNYSSDSKHSFTSSEYSVQNKKEEHDKKKKKLFFLKKQKKKNYHSSSQSNHSYDENKKDELSIDKWNEIRKELGMKPLK | soluble |
| MAHHHHHHMAPLKTQAPSNRSLLGYPLRRAAAMEMLYGGICIQHLAQPPFPLRTIQSESLPPPSLQGERDDLELEVKDSTGNVMGYRLFPVNIGIRARTESVRVRSEDCYKRFLAQKHCAAAGVPLQFPAPSSITNSNCLATPRAASHFHPPSSSLSLFTRPADSQGGDVGRTTPADVAAYHPRAWRPYQMLKPMPHNWGPAVRSSGVRGPHMQLLQERIDKKGFGWKRKSRSLWQQDISTAGFRPKRYF | not soluble |
| MAHHHHHHMATLQVRDFDPRTATHYYHCILAGIPHPVTLQSISSAIVPDSECESVQNLEKIGCQIVPYRLHVFKETLSLKFGVVDFFIHHSTSGESANPAEVHELFLQWFGSSLTRGVMSLNSWISLGQPRELHSATPFVSALMEKCSFFDAKVVSDIEKLRTFILSKVRFDNRGLNAHANNRSRVAASEDSSLQEEQTRTDCGNDPSVEWKSVGTLSASSLDSQELAWLSRQHRQFPSIAPANEREASATWELEPVRTFLQKALTPLVEVVK | not soluble |
| MAHHHHHHMATPKQKETICEAAIVGFSFNKDRTEAVFSPNNHLLYIVSCKDIKDCSTWEIYATLEHHDQSVSATAWHGSTNRILSCSQDRTAFVWQRNAKGKWKPQMVMLDAGVKRGLTSCAWNHSGSKIYVGSAASNIAVGRFDAENEWWICRLLEGHTSTVTALAPHPSDDTLLLSGGTDGRLMLISTFMKKLDGKKSSSFGHVYLEKCFGAWVHAIAWAPSGQRFAVATHDSRVHVFDIPSVDNLSESIDEGLAIYSVSLAILPLKSLAFVLEDHLVGGGFDYFPALFQPSKKGTGWTMSGKWTMTRVKGAKTAQQIAREKFQNEARIGQAELLEEEQTRHKNTINGVLTLIDDGAAFKSAMEGPVFATASLDGRVEVWTIRDMIPII | not soluble |
| MAHHHHHHMATSLSDVNHIILVLSGKGGVGKSTVACQLALALANVHGKKVGLLDVDICGPSVPTICGVTGKDVYRGDAGWEPVSLFHEQHEADTAASATGNVKIMSIAFLLPSENDAVVWRGPKKDAMIRQFVTDVHWGALDYLIIDTPPGTSDEHLTLCEVLKPFNTAGAVIVTTPQDVATDDVKKELSLCHKLELRCLGVVENMSGFVCPHCAHCTDIFSKGGGKKLAEMYEVEFLGAIPIDPTLSLAEDKGQCFVTTATDANSPTVRKTVAAVTGVIDAILKQVEKSAQLQQRH | soluble |
| MAHHHHHHMATSSHRTAMSSLSAAMKQYVQQAAEDDVVCAFGPDYFHGARTGACVGSLFSATLCWYTFRLLKEDQREVDFLAGLKHGQRNPHFSTWTLLRGLRTQPMLTTGCIALATTSAMKCIKCYLANQRCREFFTDDVQFHMISELSETDLDAAAFLSTVLHNANGCGVGARNALSTLREDRSEDQPSMSPAPTASASTSTVNGLLHTHSSRLDSKEFTLTHRAPTYYDGVAVAFLGSVLDCYLPQKPVQKYYNMRVGTW | not soluble |
| MAHHHHHHMAVSINSQLKYVVNQAASVEADMNCVERVQHYTSNIEHEDLMEEIDEAIRALEKNDKKRRERKGDPITPAGITHDDDDTSTATVSVPLLEESHASDASPELSYSPADNNNHNDDNGRRENVAAGSLEFRDVTMRYRAGLPHVLCGLTFTIPAGQKVGVIGRTGSGKSSLLLTLLRVVDIEDGQIVLSGRPIRSYSLRALRQLFSMIPQDPLLFNGKVRENLDPLNVCSDAQVREAIRLVGMEDRLAAETDPLQCPVEEGGANFSVGQRQLLCMARTLLRRGCSFILMDEATANVDPTLDKQIQHVVTHVFAGHTVITIAHRLHTLATYDVILMMEEGRVVEMGSPYDLVRSADTRFAQMVRSLGESAMQEFMASTQAPTR | not soluble |
| MAHHHHHHMCAYASILVVSAVHLCFCYRSHTSQSMTPAKALRLSSLPLATAWWRQHGLADRLEGFRACRQPTPRQRPLQRTADGGVSLGWAGLLAGAEQSRTSSITTATDRPPDLPLVLVSACLLSYPVTYRGTHTNLPASLRPTPLLFLTEVLFKELGLVQCVPVCPEVQWLGLPVPRVPLRLVRGSRGTDDARQRGSGWAAAQHSSSATLPSLSMSASDSVAIKGEREARYLVESSAEDHVLLRCDAPNDTFAEQSPSPQLHSAFLAQLVQDLKAVDGIILKSYSPSCGVRDARLYEEAVTSPPSSPCDQHACNACERAGKPTSASFIGRRPAASASAQRRFDLVDGFFTQQLRDFLTSMHGVGGERRADARCHSEAAAPVITCDRLLTDFYTEERLRRSPLAGKVKKRHVAGNASEAAPHLTSLDSFMESVLQHRDWRVSQHRC | not soluble |
| MAHHHHHHMDARVHRSKRGCGRVLKRSRASSPEVVAEVGTGRPGDPFVLPLRSSPNGSGCHHCPEHSCDCLYVSKELERCYLSLQVSRQVTCKGRRELCAKSVLPPFVARLLRVANVTADDTFYDLGCGNGSVLFHVALATGASCVGVEINEHNAKVAKEAWTHLRPVFEKRRGRKLDVSIVCGDFCKVLKQDNYFSSSCVVWIANLLMPRFVNHYLSERLRSLPIGSRVLCMEDLYPHSRSVAAARDPDAFEKFEMVDYRWQEDSVEWSPASGPFYLYIKRS | not soluble |
